Measured values as given in article PMC9935901 (2023).

Columns and labels:
[1] = molecular target: Cell-penetrating FaP3 (CP-FaP3); experiment: SPR
[2] = molecular target: Cell-penetrating FaP2 (CP-FaP2); experiment: SPR

B1: β-catenin (surface plasmon resonance) (natural protein)
chain: MATQADLMELDMAMEPDRKAAVSHWQQQSYLDSGIHSGATTTAPSLSGKGNPEEEDVDTSQVLYEWEQGFSQSFTQEQVADIDGQYAMTRAQRVRAAMFPETLDEGMQIPSTQFDAAHPTNVQRLAEPSQMLKHAVVNLINYQDDAELATRAIPELTKLLNDEDQVVVNKAAVMVHQLSKKEASRHAIMRSPQMVSAIVRTMQNTNDVETARCTAGTLHNLSHHREGLLAIFKSGGIPALVKMLGSPVDSVLFYAITTLHNLLLHQEGAKMAVRLAGGLQKMVALLNKTNVKFLAITTDCLQILAYGNQESKLIILASGGPQALVNIMRTYTYEKLLWTTSRVLKVLSVCSSNKPAIVEAGGMQALGLHLTDPSQRLVQNCLWTLRNLSDAATKQEGMEGLLGTLVQLLGSDDINVVTCAAGILSNLTCNNYKNKMMVCQVGGIEALVRTVLRAGDREDITEPAICALRHLTSRHQEAEMAQNAVRLHYGLPVVVKLLHPPSHWPLIKATVGLIRNLALCPANHAPLREQGAIPRLVQLLVRAHQDTQRRTSMGGTQQQFVEGVRMEEIVEGCTGALHILARDVHNRIVIRGLNTIPLFVQLLYSPIENIQRVAAGVLCELAQDKEAAEAIEAEGATAPLTELLHSRNEGVATYAAAVLFRMSEDKPQDYKKRLSVELTSSLFRTEPMAWNETADLGLDIGAQGEPLGYRQDDPSYRSFHSGGYGQDALGMDPMMEHEMGGHHPGADYPVDGLPDLGHAQDLMDGLPPGDSNQLAWFDTDL
Q: How did the Kd [1] turn out when B1 was run?
A: The Kd was 61.9 nM.

Q: What about the Kd [2] of the same binder?
A: The Kd was 194 nM.
